Patent publication US20150344570A1 (published 2015)
Substitutions are numbered along the chain they refer to. Names may count otherwise.

B1: GpH7-A5/GpH7-B3 variant Y296_03V/GpL16-k0 (antibody, human IgG1, kappa)
heavy 1: not shown
heavy 2: not shown
light: DIVMTQSPLSLPVTPGEPASISCQASESLVHSNRNTYLHWYLQKPGQSPQLLIYKVSNRFSGVPDRFSGSGSGTDFTLKISRVEAEDVGVYYCSQNTHVPPTFGQGTKVEIERTVAAPSVFIFPPSDEQLKSGTASVVCLLNNFYPREAKVQWKVDNALQSGNSQESVTEQDSKDSTYSLSSTLTLSKADYEKHKVYACEVTHQGLSSPVTKSFNRGEC
notes: Heterodimerized anti-glypican-3 IgG1; alteration only in the GpH7-B3 chain, EU numbering; also called He Ab
B2: GpH7-A5/GpH7-B3 variant Y296_19Q/GpL16-k0 (antibody, human IgG1, kappa)
heavy 1: not shown
heavy 2: not shown
light: B1 light
notes: as for B1
B3: GpH7-A5/GpH7-B3 variant Y296_13S/GpL16-k0 (antibody, human IgG1, kappa)
heavy 1: not shown
heavy 2: not shown
light: B1 light
notes: as for B1
B4: GpH7-A5/GpH7-B3 variant Y296_11K/GpL16-k0 (antibody, human IgG1, kappa)
heavy 1: not shown
heavy 2: not shown
light: B1 light
notes: as for B1
B5: GpH7-A5/GpH7-B3 variant Y296_05P/GpL16-k0 (antibody, human IgG1, kappa)
heavy 1: not shown
heavy 2: not shown
light: B1 light
notes: as for B1
B6: GpH7-A5/GpH7-B3 variant Y296_08L/GpL16-k0 (antibody, human IgG1, kappa)
heavy 1: not shown
heavy 2: not shown
light: B1 light
notes: as for B1
B7: GpH7-A5/GpH7-B3 variant Y296_12R/GpL16-k0 (antibody, human IgG1, kappa)
heavy 1: not shown
heavy 2: not shown
light: B1 light
notes: as for B1
B8: GpH7-A5/GpH7-B3 variant Y296_07I/GpL16-k0 (antibody, human IgG1, kappa)
heavy 1: not shown
heavy 2: not shown
light: B1 light
notes: as for B1
B9: H240-Kn032/H240-Hl032/L73-k0 (antibody, human IgG1, kappa)
heavy 1: QDQLVQSGAEVKKPGASVKVSCKASGFNIKDTYIQWVRQAPGQGLEWMGRIDPLRKQTKYREKFEGRVTITADTSTNTAYMELSSLRSEDTAVYYCVRSGREFDYWGQGTLVTVSSASTKGPSVFPLAPSSKSTSGGTAALGCLVKDYFPEPVTVSWNSGALTSGVHTFPAVLQSSGLYSLSSVVTVPSSSLGTQTYICNVNHKPSNTKVDKKVEPKSCDKTHTCPPCPAPELLGGPDVFLFPPKPKDTLMISRTPEVTCVVVDVSHEDPEVKFNWYVDGVEVHNAKTKPREEQYNSTYRVVSVLTVLHQDWLNGKEYKCKVSNKALPLPEEKTISKAKGQPREPQVCTLPPSRDELTKNQVSLWCLVKGFYPSDIAVEWESNGQPENNYKTTPPVLDSDGSFFLYSKLTVDKSRWQQGNVFSCSVMHEALHNHYTQKSLSLSP
heavy 2: B9 heavy 1 with C348Y, D355C, W365S, L367A, Y406V
light: DIQMTQSPSSLSASVGDRVTITCRASQDIHKYIAWYQQKPGQAPRLLIQYTSTLQPGVPSRFSGSGSGTDYTFTISSLQPEDIATYYCLQYEQLRTFGGGTKVEIKRTVAAPSVFIFPPSDEQLKSGTASVVCLLNNFYPREAKVQWKVDNALQSGNSQESVTEQDSKDSTYSLSSTLTLSKADYEKHKVYACEVTHQGLSSPVTKSFNRGEC
notes: Anti-epiregulin IgG1, knobs-into-holes; S239D/A330L/I332E in both H chains (comparison antibody)
B10: H240-Kn037/H240-Hl036/L73-k0 (antibody, human IgG1, kappa)
heavy 1: B9 heavy 1 with G235A, L329A
heavy 2: B9 heavy 1 with G235A, L329A, C348Y, D355C, W365S, L367A, Y406V
light: B9 light
B11: H240-Kn120/H240-Hl068/L73-k0 (antibody, human IgG1, kappa)
heavy 1: B9 heavy 1 with L233Y, L234Y, G235W, D238M, H267D, S297A, A326D, L329A, E331I
heavy 2: QDQLVQSGAEVKKPGASVKVSCKASGFNIKDTYIQWVRQAPGQGLEWMGRIDPLRKQTKYREKFEGRVTITADTSTNTAYMELSSLRSEDTAVYYCVRSGREFDYWGQGTLVTVSSASTKGPSVFPLAPSSKSTSGGTAALGCLVKDYFPEPVTVSWNSGALTSGVHTFPAVLQSSGLYSLSSVVTVPSSSLGTQTYICNVNHKPSNTKVDKKVEPKSCDKTHTCPPCPAPELLGGPSVFLFPPKPKDTLMISRTPEVTCVVVDVSHEEPEVKFNWYVDGVEVHNAKTKPREEQYNSTYRVVSVLTVLHQDWLNGKEYKCKVSNDALPKPIEETISKAKGQPREPQVYTLPPSRCELTKNQVSLSCAVKGFYPSDIAVEWESNGQPENNYKTTPPVLDSDGSFFLVSKLTVDKSRWQQGNVFSCSVMHEALHNHYTQKSLSLSP
light: B9 light
notes: Anti-epiregulin heterodimerized IgG1, knobs-into-holes
B12: H240-Kn184/H240-Hl068/L73-k0 (antibody, human IgG1, kappa)
heavy 1: B9 heavy 1 with L233E, L234Y, G235W, D238M, H267D, S297A, A326D, L329A, E331I
heavy 2: B11 heavy 2
light: B9 light
notes: as for B11

Legend:
[1] = target: T1, FcγRIa extracellular domain with C-terminal His tag (human, UniProt P12314 16-292); assay: SPR (Biacore); He/Con_1a divided by He/Con_2b (FcγRIa binding over FcγRIIb binding)
T1 construct: extracellular domain; also called FcgRI; 1a
T1 sequence (P12314 16-292): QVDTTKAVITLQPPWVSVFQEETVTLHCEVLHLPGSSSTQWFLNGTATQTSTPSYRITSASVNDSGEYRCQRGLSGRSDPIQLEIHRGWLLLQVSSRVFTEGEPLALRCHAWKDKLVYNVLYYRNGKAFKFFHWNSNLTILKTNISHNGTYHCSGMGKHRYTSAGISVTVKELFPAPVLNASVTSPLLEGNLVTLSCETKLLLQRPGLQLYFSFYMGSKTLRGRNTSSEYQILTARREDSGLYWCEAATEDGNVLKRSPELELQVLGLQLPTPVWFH
Protocol: (§1) The heterodimerized antibodies He Abs in which one of the H chains was introduced with an alteration were assayed for their binding activities to each activating FcγR and inhibitory FcγR according to the method described in Example 4. […] The activating FcγRs in FIGS. 26, 27, 28, and 29 are FcγRIa, FcγRIIa (R), FcγRIIa (H), and FcγRIIIa, respectively.
(§2) Analysis of interaction between objective antibody and the FcγR was carried out using Biacore T100 (GE Healthcare). HBS-EP+ (GE Healthcare) was used as the running buffer, and the measurement temperature was set to 25° C. Chips produced by immobilizing the antigen peptide by the amine coupling method to a Series S Sencor Chip CM5 (GE Healthcare), or alternatively, chips produced by allowing preliminarily biotinylated antigen peptides to interact with and immobilize onto a Series S Sensor Chip SA (certified) (GE Healthcare) were used. Antibodies of interest were captured onto an antigen peptide-immobilized chip, and allowed to interact to each FcγR diluted with running buffer. To regenerate and repeatedly use the chip, the antibodies captured on the chip were washed off by reacting 10 mM glycine-HCl, pH 1.5.

[2] = target: T2, FcγRIIb extracellular domain with C-terminal His tag (human, UniProt P31994 43-217); assay: SPR (Biacore), antibody captured via antigen peptide, FcγR as analyte; relative binding
T2 construct: extracellular domain; also called FcgRIIb; 2b
T2 sequence (looked up): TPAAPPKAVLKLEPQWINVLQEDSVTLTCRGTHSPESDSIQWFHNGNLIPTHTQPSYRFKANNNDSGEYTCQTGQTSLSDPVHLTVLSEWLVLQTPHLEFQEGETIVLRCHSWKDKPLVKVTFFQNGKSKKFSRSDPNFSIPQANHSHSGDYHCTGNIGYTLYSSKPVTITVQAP
Protocol: as §1, §2

[3] = target: T1, FcγRIa extracellular domain with …; assay: as above
Protocol: as §1, §2

FcgRIIb = target: T3, FcgRIIb (human, UniProt P31994 43-217); assay: SPR (Biacore); KD of H240-Kn033/H240-Hl033/L73-k0 divided by KD of this variant
T3 construct: extracellular domain; also called FcγRIIb; 2b; not shown: His tag attached to the C terminus
T3 sequence (looked up): T2 sequence (looked up)
Protocol: (§3) H240-Kn204/H240-Hl211/L73-k0 and H240-Kn205/H240-Hl212/L73-k0 were prepared according to the method of Reference Example 1, by combining H240-Kn204 as one of the H chains and L73-k0 as the L chains with H240-Hl211 as the other H chain, and by combining H240-Kn205 as one of the H chains and L73-k0 as the L chains with H240-Hl212 as the other H chain, and then expressing them. The binding of the prepared variants to FcgRIa, FcgRIIaR, FcgRIIaH, FcgRIIb, FcgRIIIaF, and FcgRIIIaV was measured according to the method of Reference Example 8.
(§4) “fold 2aR”, “fold 2aH”, “fold 2b”, “fold 3aF”, and “fold 3aV” show the relative binding activity of each variant to FcgRIIaR, FcgRIIaH, FcgRIIb, FcgRIIIaF, and FcgRIIIaV, respectively, when the binding activity of H240-Kn033/H240-Hl033/L73-k0, a variant produced by introducing only alterations that promote formation of a heterodimerized antibody into a native IgG1, is defined as 1. Specifically, they are values obtained by dividing the KD value of H240-Kn033/H240-Hl033/L73-k0 for each FcgR by the KD value of an individual variant for each FcgR.
(§5) Analysis of interaction between objective antibody and the FcγR was carried out using Biacore T100 (GE Healthcare), Biacore T200, Biacore A100, and Biacore 4000. HBS-EP+ (GE Healthcare) was used as the running buffer, and the measurement temperature was set to 25° C. Chips produced by immobilizing the antigen peptide by the amine coupling method to a Series S sensor Chip CM5 (GE Healthcare), chips produced by allowing preliminarily biotinylated antigen peptides to interact with and immobilize onto a Series S Sensor Chip SA (certified) (GE Healthcare), chips produced by immobilizing Protein L (ACTIGEN, BioVision) to Series S Sencor Chip CM5 (GE Healthcare), or chips produced by immobilizing Protein A/G (Thermo Scientific) to Series S Sencor Chip CM5 (GE Healthcare) were used. Antibodies of interest were captured onto these chips, and allowed to interact to each FcγR diluted with running buffer.

FcgRIIaH = target: T4, FcgRIIaH (human, UniProt P12318 34-217); assay: as above
T4 construct: extracellular domain; also called FcγRIIa H; FcgRIIa type H; not shown: His tag attached to the C terminus
T4 sequence (looked up): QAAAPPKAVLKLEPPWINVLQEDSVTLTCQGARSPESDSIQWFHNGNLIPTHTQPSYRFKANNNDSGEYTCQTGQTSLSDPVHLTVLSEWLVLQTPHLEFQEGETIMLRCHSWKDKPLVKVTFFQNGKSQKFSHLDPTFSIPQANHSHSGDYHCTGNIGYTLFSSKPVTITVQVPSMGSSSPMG
Protocol: as §3, §4, §5

FcgRIIaR = target: T5, FcgRIIaR (human, UniProt P12318 34-217); assay: as above
T5 construct: extracellular domain; also called FcγRIIa R; FcgRIIa type R; not shown: His tag attached to the C terminus
T5 sequence (looked up): T4 sequence (looked up) with H134R
Protocol: as §3, §4, §5

FcgRIIIaF = target: T6, FcgRIIIaF (human, UniProt P08637 17-208); assay: as above
T6 construct: extracellular domain; also called FcγRIIIa F; 3aF; not shown: His tag attached to the C terminus
T6 sequence (P08637 17-208): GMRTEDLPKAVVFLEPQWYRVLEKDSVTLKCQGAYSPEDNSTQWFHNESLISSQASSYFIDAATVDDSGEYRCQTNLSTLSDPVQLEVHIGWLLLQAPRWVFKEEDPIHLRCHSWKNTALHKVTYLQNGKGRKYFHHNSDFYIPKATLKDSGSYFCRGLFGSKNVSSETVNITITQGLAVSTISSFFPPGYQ
Protocol: as §3, §4, §5

FcgRIIIaV = target: T7, FcgRIIIaV (human, UniProt P08637 17-208); assay: as above
T7 construct: extracellular domain; also called FcγRIIIa V; 3aV; not shown: His tag attached to the C terminus
T7 sequence (P08637 17-208 F176V limits assumed): as the sequence (P08637 17-208) above, with F160V counted along it
Protocol: as §3, §4, §5

Binder | He_1a/2b (Ia/IIb) [1] [ratio] | He/Con_2b [2] | He/Con_1a [3] | fold 2b (FcgRIIb) [fold] | fold 2aH (FcgRIIaH) [fold] | fold 2aR (FcgRIIaR) [fold] | fold 3aF (FcgRIIIaF) [fold] | fold 3aV (FcgRIIIaV) [fold]
B1 | 1.31 | 79.3 % of GpH7-A5/GpH7-B3/GpL16-k0 (=100) | 104 % of GpH7-A5/GpH7-B3/GpL16-k0 (=100) | – | – | – | – | –
B2 | 1.25 | 89.3 % of GpH7-A5/GpH7-B3/GpL16-k0 (=100) | 112 % of GpH7-A5/GpH7-B3/GpL16-k0 (=100) | – | – | – | – | –
B3 | 1.22 | 86.3 % of GpH7-A5/GpH7-B3/GpL16-k0 (=100) | 105 % of GpH7-A5/GpH7-B3/GpL16-k0 (=100) | – | – | – | – | –
B4 | 1.44 | 72.8 % of GpH7-A5/GpH7-B3/GpL16-k0 (=100) | 105 % of GpH7-A5/GpH7-B3/GpL16-k0 (=100) | – | – | – | – | –
B5 | 2.61 | 36.6 % of GpH7-A5/GpH7-B3/GpL16-k0 (=100) | 95.6 % of GpH7-A5/GpH7-B3/GpL16-k0 (=100) | – | – | – | – | –
B6 | 1.26 | 82.3 % of GpH7-A5/GpH7-B3/GpL16-k0 (=100) | 104 % of GpH7-A5/GpH7-B3/GpL16-k0 (=100) | – | – | – | – | –
B7 | 1.34 | 79.5 % of GpH7-A5/GpH7-B3/GpL16-k0 (=100) | 106 % of GpH7-A5/GpH7-B3/GpL16-k0 (=100) | – | – | – | – | –
B8 | 1.24 | 84.3 % of GpH7-A5/GpH7-B3/GpL16-k0 (=100) | 104 % of GpH7-A5/GpH7-B3/GpL16-k0 (=100) | – | – | – | – | –
B9 | – | – | – | 5.3 | 0.8 | 2.2 | 31.9 | 15.5
B10 | – | – | – | 8.7 | 11.3 | 25.5 | 13.8 | 7.1
B11 | – | – | – | 22 | 11.8 | 32.2 | 121 | 146
B12 | – | – | – | 22 | 7.4 | 27.4 | 132 | 141
